# Source: article PMC8602626
# Substitutions are numbered along the chain they refer to.
# B1: γ8::eGFP (natural protein)
# chain: MESLKRWNEERGLWCEKGVQVLLTTIGAFAAFGLMTIAISTDYWLYTRALICNTTNLTAGDDGPPHRGGSGSSEKKDPGGLTHSGLWRICCLEGLKRGVCVKINHFPEDTDYDHDSAEYLLRVVRASSIFPILSAILLLLGGVCVAASRVYKSKRNIILGAGILFVAAGLSNIIGVIVYISANAGEPGPKRDEEKKNHYSYGWSFYFGGLSFILAEVIGVLAVNIYIERSREAHCQSRSDLLKAGGGAGGSGGSGPSAILRLPSYRFRYRRRSRSSSRGSSEASPSRDASPGGPGGPGFASTDISMYTLSRDPSKGSVAAGLASAGGGGGGAGVGAYGGAAGAAGGGGTGSERDRGSSAGFLTLHNAFPKEAASGVTVTVTGPPAAPAPAPPAPAAPAPGTLSKEAAASNTNTLNRKTTPV
# B2: γ8 S72* (natural protein)
# chain: B1 chain with S72K
# modifications: TCO*A (trans-cyclooct-2-ene-L-lysine) at 72, clicked with H-Tet-Cy3
# B3: γ2 S44* (natural protein)
# chain: MGLFDRGVQMLLTTVGAFAAFSLMTIAVGTDYWLYSRGVCKTKKVSENETSKKNEEVMTHSGLWRTCCLEGNFKGLCKQIDHFPEDADYEADTAEYFLRAVRASSIFPILSVILLFMGGLCIAASEFYKTRHNIILSAGIFFVSAGLSNIIGIIVYISANAGDPSKSDSKKNSYSYGWSFYFGALSFIIAEMVGVLAVHMFIDRHKQLRATARATDYLQASAITRIPSYRYRYQRRSRSSSRSTEPSHSRDASPVGVKGFNTLPSTEISMYTLSRDPLKAATTPTATYNSDRDNSFLQVHNCIQKDSKDSLHANTANRRTTPV
# modifications: TCO*A (trans-cyclooct-2-ene-L-lysine) at 44, clicked with H-Tet-Cy3
# B4: γ2::eGFP (natural protein)
# chain: B3 chain with K44S
# Molecular target: GluA1::SNAP396 (UniProt P19490)
# Sequence of UniProt P19490 (P19490 19-907): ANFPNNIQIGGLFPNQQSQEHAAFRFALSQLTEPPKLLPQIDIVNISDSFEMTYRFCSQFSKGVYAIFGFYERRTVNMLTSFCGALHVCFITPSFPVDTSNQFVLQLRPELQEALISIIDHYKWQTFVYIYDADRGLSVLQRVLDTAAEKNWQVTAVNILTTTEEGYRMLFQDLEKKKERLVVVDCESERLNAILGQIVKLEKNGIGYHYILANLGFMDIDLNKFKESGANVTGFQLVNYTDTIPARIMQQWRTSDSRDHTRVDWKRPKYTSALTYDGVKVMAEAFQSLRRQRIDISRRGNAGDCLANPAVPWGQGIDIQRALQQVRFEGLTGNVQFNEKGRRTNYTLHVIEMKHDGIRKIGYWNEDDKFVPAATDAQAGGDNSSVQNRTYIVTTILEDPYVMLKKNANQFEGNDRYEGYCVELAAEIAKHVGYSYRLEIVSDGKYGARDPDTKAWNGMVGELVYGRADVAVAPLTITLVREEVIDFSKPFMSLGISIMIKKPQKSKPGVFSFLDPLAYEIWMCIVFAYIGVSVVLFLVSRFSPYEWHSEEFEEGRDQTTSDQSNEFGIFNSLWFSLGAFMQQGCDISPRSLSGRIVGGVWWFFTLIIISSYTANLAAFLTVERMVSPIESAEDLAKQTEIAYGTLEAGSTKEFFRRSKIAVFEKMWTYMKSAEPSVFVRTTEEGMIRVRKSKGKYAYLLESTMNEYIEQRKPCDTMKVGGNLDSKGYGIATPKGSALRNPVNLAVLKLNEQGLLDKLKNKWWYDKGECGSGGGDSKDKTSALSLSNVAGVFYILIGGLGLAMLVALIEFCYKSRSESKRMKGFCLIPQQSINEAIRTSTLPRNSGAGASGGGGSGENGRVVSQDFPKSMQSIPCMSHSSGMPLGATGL
binder,measurement,value
B1,"recovery from desensitization τrec, whole-cell patch clamp, HEK293T cells with untagged GluA1 (flip isoform) and γ8::eGFP (GluA1 alone 162.6)",40.9 ms
B2,"recovery from desensitization τrec, whole-cell patch clamp, HEK293T cells with untagged GluA1 (flip isoform) and γ8 S72*::eGFP (GluA1 alone 162.6)",45.8 ms
B3,"recovery from desensitization τrec, whole-cell patch clamp, HEK293T cells with untagged GluA1 (flip isoform) and γ2 S44*::eGFP (GluA1 alone 162.6)",62.3 ms
B4,"recovery from desensitization τrec, whole-cell patch clamp, HEK293T cells with untagged GluA1 (flip isoform) and γ2::eGFP (GluA1 alone 162.6)",57.1 ms
